Reference: patent US20260139028A1 (University of California, published 2026)
Several values for one entry are separate records, joined by “and”; a condition that tells them apart may be missing. Equal values may be shown once.

Columns and labels:
[1] = molecular target: integrins on CHO cells (α5β1+ and αvβ3 low), PSGL-1 negative; experiment: cell-based or functional assay
[2] = molecular target: T1, soluble recombinant integrin αIIbβ3 (UniProt P08514 32-993; P05106 27-718); experiment: ELISA-type, coated proteins, soluble integrin
T1 construct: Bought (AgroBio), used at 1 µg/ml; also called soluble αIIbβ3

soluble integrin αvβ3 = molecular target: T2, soluble integrin αvβ3 (UniProt P06756 31-992; P05106 27-718); experiment: ELISA-type, coated proteins, soluble integrin
T2 construct: Soluble integrin used at 1 µg/ml; also called soluble αvβ3
T2 sequence (P06756 31-992, chain 1 of 2): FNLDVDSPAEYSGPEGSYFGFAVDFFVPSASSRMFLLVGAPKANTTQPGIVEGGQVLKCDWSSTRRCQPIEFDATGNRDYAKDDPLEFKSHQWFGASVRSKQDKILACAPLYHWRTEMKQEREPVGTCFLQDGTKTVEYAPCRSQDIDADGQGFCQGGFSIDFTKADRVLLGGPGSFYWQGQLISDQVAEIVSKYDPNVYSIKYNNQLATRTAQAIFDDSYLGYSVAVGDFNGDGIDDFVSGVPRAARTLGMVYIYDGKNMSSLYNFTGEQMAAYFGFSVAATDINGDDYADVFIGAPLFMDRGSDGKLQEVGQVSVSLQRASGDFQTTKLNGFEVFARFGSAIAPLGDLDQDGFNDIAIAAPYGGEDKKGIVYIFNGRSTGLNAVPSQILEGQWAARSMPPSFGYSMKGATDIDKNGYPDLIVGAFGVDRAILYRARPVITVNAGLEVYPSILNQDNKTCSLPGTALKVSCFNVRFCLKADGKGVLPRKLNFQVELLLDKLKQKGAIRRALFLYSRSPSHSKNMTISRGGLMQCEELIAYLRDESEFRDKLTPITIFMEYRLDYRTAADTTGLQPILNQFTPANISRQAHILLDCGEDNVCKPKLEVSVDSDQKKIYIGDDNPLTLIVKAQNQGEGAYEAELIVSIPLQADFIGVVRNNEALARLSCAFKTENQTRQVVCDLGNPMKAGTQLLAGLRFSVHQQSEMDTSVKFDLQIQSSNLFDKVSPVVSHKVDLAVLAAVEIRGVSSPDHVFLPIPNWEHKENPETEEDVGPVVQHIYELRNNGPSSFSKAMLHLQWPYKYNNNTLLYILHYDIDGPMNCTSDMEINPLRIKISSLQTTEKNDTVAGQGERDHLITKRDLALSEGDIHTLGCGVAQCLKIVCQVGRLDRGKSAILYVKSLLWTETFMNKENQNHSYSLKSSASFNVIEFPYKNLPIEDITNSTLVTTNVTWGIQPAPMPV
T2 sequence (P05106 27-718, chain 2 of 2): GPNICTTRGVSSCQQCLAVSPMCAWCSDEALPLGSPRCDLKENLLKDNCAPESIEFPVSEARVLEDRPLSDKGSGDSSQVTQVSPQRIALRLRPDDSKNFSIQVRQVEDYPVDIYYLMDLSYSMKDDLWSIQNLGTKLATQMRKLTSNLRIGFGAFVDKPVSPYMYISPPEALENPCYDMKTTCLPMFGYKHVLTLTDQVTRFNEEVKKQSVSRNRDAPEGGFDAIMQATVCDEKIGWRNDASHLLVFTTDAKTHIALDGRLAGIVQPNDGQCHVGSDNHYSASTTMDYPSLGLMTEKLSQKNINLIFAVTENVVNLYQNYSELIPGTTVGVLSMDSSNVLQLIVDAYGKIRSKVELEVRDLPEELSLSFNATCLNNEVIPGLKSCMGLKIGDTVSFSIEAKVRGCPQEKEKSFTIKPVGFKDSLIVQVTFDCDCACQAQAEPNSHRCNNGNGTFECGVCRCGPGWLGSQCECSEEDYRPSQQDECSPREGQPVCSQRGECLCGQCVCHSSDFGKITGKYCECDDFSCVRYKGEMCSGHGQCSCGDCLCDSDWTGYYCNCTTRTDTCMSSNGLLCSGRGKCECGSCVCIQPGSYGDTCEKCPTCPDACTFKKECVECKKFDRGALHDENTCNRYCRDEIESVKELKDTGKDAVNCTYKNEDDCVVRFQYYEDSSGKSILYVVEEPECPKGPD

adhesion of CHO cells to immobilized lectin domain [1] | fold binding against the combined lectin and EGF-like domains [2] | fold binding against the combined lectin and EGF-like domains (soluble integrin αvβ3) | Binder
70% and > 90% | ~2 fold | ~2 fold | C-type lectin domain of CD62P (P-selectin), wild type, residues 1-117 (ligand, not shown: small tags and cut ends, also called the lectin domain; CD62P lectin domain) WTYHYSTKAYSWNISRKYCQNRYTDLVAIQNKNEIDYLNKVLPYYSSYYWIGIRKNNKTWTWVGTKKALTNEAENWADNEPNNKRNNEDCVEIYIKSPSAPGKWNDEHCLKKKHALC
60% | – | – | CD62P lectin domain mutant R16E/K17E, P16109 42-158 (ligand, not shown: small tags and cut ends) WTYHYSTKAYSWNISEEYCQNRYTDLVAIQNKNEIDYLNKVLPYYSSYYWIGIRKNNKTWTWVGTKKALTNEAENWADNEPNNKRNNEDCVEIYIKSPSAPGKWNDEHCLKKKHALC
